Series [1] addresses T1, NEPv (NEP G399V/G714K) (Homo sapiens, UniProt P08473, G400V/G715K).
T1 construct: DNA encoding amino acids 52–749 of human NEP variants was amplified by PCR; made in house; host or cells: CHO suspension cells (transient, secreted)
Kind of series: Inhibition of Aβ1–40 cleavage activity, fluorescence polarisation. The format is biochemical. Here is the method:
(§1) The effect of inhibitors on NEP activity was determined using the above fluorescence polarisation assay to measure the rate of Aβ1–40 cleavage with a substrate concentration of 10 µM, an enzyme concentration of 20 nM and inhibitor concentrations in the range 2 nM to 100 µM.
A general note: Fluorescence polarisation rises when a labelled molecule tumbles more slowly, as on binding a larger partner.

Series [2] deals with T2, wild-type NEP (Homo sapiens, UniProt P08473).
T2 construct: DNA encoding amino acids 52–749 of human NEP variants was amplified by PCR; made in house; host or cells: CHO suspension cells (transient, secreted)
Described as above. The format is biochemical. Particulars: enzyme wild-type NEP 20 nM; Aβ1–40 substrate 10 µM. Here is the method: as §1

For series [3], the target named is NEP G399V (Homo sapiens, UniProt P08473, G400V). The experiment in a line: biochemical. Here is the method:
as §1

Series [4] has as its target NEP G714K (Homo sapiens, UniProt P08473, G715K). Kind of series: biochemical. As to the method:
as §1

The test system of series [5] is Aβ1–40. Kind of series: Endpoint degradation assay with ELISA read-out. The format is biochemical, human. To be noted: 1 hour at room temperature; Aβ40 ELISA. As to the method: (§2) Supplementary file pone.0104001.s001.tif: Figure S1 Degradation of Aβ1–40 and Aβ1–42 by NEP wild-type and NEPv. Measurement of the degredation of Aβ1–40 (A) and Aβ1–42 (B) was performed by incubating peptide and either wild-type NEP (▪) or NEPv (Δ) for 1 hour at room temperature. The reaction was stopped by the addition of 1.10-phenanthroline to a final concentration of 10 µM. 50 µl (Aβ40 analysis) or 100 µl (Aβ42 analysis) of the reaction mix was transferred to an ELISA plate. Aβ40 and Aβ42 concentrations after degradation were determined using Invitrogen human Aβ40 ELISA kit (Invitrogen, California, US), and Innotest β-amyloid RUO (1–42) ELISA (Innogenetics, Gent, Belgium). […] (TIF) Click here for additional data file.
(ELISA stands for enzyme-linked immunosorbent assay.)

For series [6], the system named is Endothelin-1. The experiment in a line: Steady-state kinetics of endothelin-1 cleavage, stopped assay with RP-HPLC. The format is biochemical. Particulars: substrate Endothelin-1 (unlabelled); RP-HPLC, 10 min at 37°C. As to the method: Kinetic parameters for cleavage of endothelin-1 by NEP were determined using a stopped assay in which the amount of substrate cleaved was measured using reversed-phase HPLC (RP-HPLC). Endothelin-1 was incubated at 12.5–200 µM in the presence of wild type NEP or NEPv and reactions were stopped after 10 min at 37°C by the addition of an equal volume of 1∶1∶1 water:acetonitrile:TFA containing 2 mM tris(2-carboxyethyl)phosphine (Thermo Scientific). RP-HPLC spectra were recorded using an Agilent 1260 Infinity system. Injections of 20 µL were made for each sample and analytes were separated by elution on an Agilent Polaris C8-A stationary phase column (4.6×100 mm, 3 µm) at 1.5 mL min^−1 using a linear binary gradient of 10–90% acetonitrile in water with 0.1% (v/v) TFA over 15 minutes at 40°C. Signal intensity for intact endothelin-1 was monitored at 210 nm and relative peak area was determined by manual integration of the baseline. Kinetic parameters were derived from the activity data as described above.

Series [7] has as its target T3, Aβ1–42 (Homo sapiens, UniProt P05067).
T3 construct: Aβ 1-42^a
The experiment in a line: Endpoint degradation assay with ELISA read-out. The format is biochemical. To be noted: 1 hour at room temperature; Aβ42 ELISA. Here is the method: as §2

Series [8] has as its system Glucagon. Kind of series: Steady-state kinetics of peptide cleavage, fluorescence polarisation. The format is biochemical. Particulars: substrate Glucagon; 37°C, pH 7.4. As to the method: (§3) For detailed kinetic characterisation of peptide cleavage by NEP, a similar assay to that above was used with modifications based on a published method. Peptides were synthesised by Bachem using 9-fluorenylmethyloxycarbonyl solid-phase peptide synthesis and were labelled with a N-terminal 5(6)FAM via a ε-aminocaproic acid linker and a C-terminal biotin via a lysine linker (Table S1). Purified peptides were supplied as trifluoroacetate salts with a purity ≥95%. The assay was performed in a 96-well microtitre plate and contained 50 mM HEPES (pH 7.4), 100 mM NaCl, 0.05% (w/v) BSA (Buffer A), 1–200 µM peptide substrate and 1–500 nM NEP protein. Reactions were incubated at 37°C before being stopped at various time points between 2 and 360 min by transferring 5 µL aliquots to 245 µL Buffer A containing 2 mM 1,10-phenanethroline (Sigma) and 2 µM avidin (Invitrogen). For peptide substrates containing disulphide bonds, 1 mM tris(2-carboxyethyl)phosphine (Thermo Scientific) was added to the stop solution. The fluorescence polarisation of the resulting solution was measured on a Victor plate reader and the amount of substrate cleaved was determined with reference to substrate-only controls with and without avidin. Initial rates were obtained by linear regression of the linear regions of time courses. Enzyme velocity was plotted as a function of substrate concentration and the Michaelis-Menten equation was used to fit the data, giving the parameters kcat and KM.

For series [9], the system named is GRP. The series is described as above. Format: biochemical. Particulars: substrate GRP; 37°C, pH 7.4. As to the method:
as §3

Series [10] deals with GLP-1. The description is as above. Format: biochemical. To be noted: substrate GLP-1; 37°C, pH 7.4. As to the method:
as §3

Series [11] relates to Bradykinin. The series is described as above. The format is biochemical. To be noted: substrate Bradykinin; 37°C, pH 7.4. Here is the method: as §3
The test system of series [12] is Nociceptin. The description is as above. The format is biochemical. To be noted: substrate Nociceptin; 37°C, pH 7.4. Here is the method: as §3
The test system of series [13] is ANP. The description is as above. To be noted: substrate ANP; 37°C, pH 7.4. The format is biochemical. As to the method: as §3
Series [14] relates to Neurotensin. The description is as above. To be noted: substrate Neurotensin; 37°C, pH 7.4. The format is biochemical. Here is the method:
as §3

In series [15] the test system is Neurokinin A. The description is as above. The format is biochemical. Particulars: substrate Neurokinin A; 37°C, pH 7.4. Here is the method: as §3
Series [16] has as its system Arg-vasopressin. The series is described as above. To be noted: substrate Arg-vasopressin; 37°C, pH 7.4. Format: biochemical. Here is the method: as §3
In series [17] the test system is Somatostatin 14. The description is as above. The format is biochemical. To be noted: substrate Somatostatin 14; 37°C, pH 7.4. Here is the method: as §3
The subject of series [18] is α-endorphin. The series is described as above. Format: biochemical. To be noted: substrate α-endorphin; 37°C, pH 7.4. Here is the method:
as §3

The subject of series [19] is Substance P. The series is described as above. Format: biochemical. Particulars: substrate Substance P; 37°C, pH 7.4. Here is the method: as §3
Series [20] has as its system Aβ1–40. The series is described as above. The format is biochemical. To be noted: substrate Aβ 1–40; 37°C, pH 7.4. Here is the method: as §3
Series [21] has as its system Angiotensin. Described as above. Format: biochemical. To be noted: substrate Angiotensin; 37°C, pH 7.4. As to the method:
as §3

In series [22] the test system is Neurokinin B. The description is as above. The format is biochemical. To be noted: substrate Neurokinin B; 37°C, pH 7.4. As to the method: as §3
For series [23], the system named is γ-endorphin. The description is as above. The format is biochemical. To be noted: substrate γ-endorphin; 37°C, pH 7.4. As to the method:
as §3

T1 sequence (P08473 53-750 G400V/G715K): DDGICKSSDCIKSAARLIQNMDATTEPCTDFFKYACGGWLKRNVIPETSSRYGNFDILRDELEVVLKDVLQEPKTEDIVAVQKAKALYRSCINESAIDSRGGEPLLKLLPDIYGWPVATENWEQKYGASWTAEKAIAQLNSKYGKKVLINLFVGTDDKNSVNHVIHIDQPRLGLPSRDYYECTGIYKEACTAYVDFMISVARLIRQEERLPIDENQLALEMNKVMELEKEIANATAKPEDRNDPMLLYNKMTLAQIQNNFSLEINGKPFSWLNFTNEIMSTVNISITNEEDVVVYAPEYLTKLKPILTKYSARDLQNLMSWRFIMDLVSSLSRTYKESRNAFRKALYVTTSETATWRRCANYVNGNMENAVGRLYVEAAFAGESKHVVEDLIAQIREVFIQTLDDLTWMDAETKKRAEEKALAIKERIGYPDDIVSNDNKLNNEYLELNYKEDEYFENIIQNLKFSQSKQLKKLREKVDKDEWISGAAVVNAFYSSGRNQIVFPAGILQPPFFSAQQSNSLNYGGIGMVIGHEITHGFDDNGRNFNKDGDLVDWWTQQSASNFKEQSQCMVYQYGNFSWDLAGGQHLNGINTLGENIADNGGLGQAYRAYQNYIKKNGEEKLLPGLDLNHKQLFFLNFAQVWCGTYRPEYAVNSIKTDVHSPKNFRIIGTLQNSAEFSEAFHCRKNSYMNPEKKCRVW
Chain of NEP G714K (P08473 53-750 G715K): as the sequence (P08473 53-750 G400V/G715K) above, with V348G counted along it
T3 sequence (P05067 672-713): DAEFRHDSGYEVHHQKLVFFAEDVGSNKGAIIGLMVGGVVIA
Chain of NEP G399V (P08473 53-750 G400V): as the sequence (P08473 53-750 G400V/G715K) above, with K663G counted along it
T2 sequence (P08473 53-750): as the sequence (P08473 53-750 G400V/G715K) above, with V348G, K663G counted along it

`CC(C)C[C@H](NP(=O)(O)O[C@@H]1O[C@@H](C)[C@H](O)[C@@H](O)[C@H]1O)C(=O)N[C@@H](Cc1c[nH]c2ccccc12)C(=O)O` [Phosphoramidon, phosphoramidon]: the “potency lower on NEPv than for wild-type NEP” value in [1] (NEPv versus wild-type NEP) is listed as more than 2000 fold. Also, the 50% inhibitory concentration (IC50) – broadly, the concentration at which inhibition is half-maximal – was 21000 nM in [1] (enzyme NEPv 20 nM, Aβ1–40 substrate 10 µM); less than 10 nM in series [2]; 610 nM in series [3]; 100 nM in [4].

B1: wild-type NEP: soluble extracellular domain (amino acids 52–749) of wild type human NEP (neprilysin), tagged, recombinantly expressed (protein, UniProt P08473 52-749, looked up, fragment)
chain: YDDGICKSSDCIKSAARLIQNMDATTEPCTDFFKYACGGWLKRNVIPETSSRYGNFDILRDELEVVLKDVLQEPKTEDIVAVQKAKALYRSCINESAIDSRGGEPLLKLLPDIYGWPVATENWEQKYGASWTAEKAIAQLNSKYGKKVLINLFVGTDDKNSVNHVIHIDQPRLGLPSRDYYECTGIYKEACTAYVDFMISVARLIRQEERLPIDENQLALEMNKVMELEKEIANATAKPEDRNDPMLLYNKMTLAQIQNNFSLEINGKPFSWLNFTNEIMSTVNISITNEEDVVVYAPEYLTKLKPILTKYSARDLQNLMSWRFIMDLVSSLSRTYKESRNAFRKALYGTTSETATWRRCANYVNGNMENAVGRLYVEAAFAGESKHVVEDLIAQIREVFIQTLDDLTWMDAETKKRAEEKALAIKERIGYPDDIVSNDNKLNNEYLELNYKEDEYFENIIQNLKFSQSKQLKKLREKVDKDEWISGAAVVNAFYSSGRNQIVFPAGILQPPFFSAQQSNSLNYGGIGMVIGHEITHGFDDNGRNFNKDGDLVDWWTQQSASNFKEQSQCMVYQYGNFSWDLAGGQHLNGINTLGENIADNGGLGQAYRAYQNYIKKNGEEKLLPGLDLNHKQLFFLNFAQVWCGTYRPEYAVNSIKTDVHSPGNFRIIGTLQNSAEFSEAFHCRKNSYMNPEKKCRV
modifications: extracellular domain tag
notes: soluble extracellular domain (amino acids 52–749) of wild type human NEP (neprilysin), tagged, recombinantly expressed
On to B1, for which the EC50 (as a rule, the concentration needed to bring the measured effect to its halfway point) in series [5] worked out at 243 nM; in series [7] it was 144 nM. The Km (usually the concentration of substrate that gives half-maximal velocity) in [6] came out at 53 ± 10 µM; in [8], 25 ± 5 µM; in series [9] it was 150 ± 30 µM; in series [10] it was 24 ± 4 µM; in series [11], 32 ± 5 µM; in series [12], 20 ± 1 µM. For the same molecule, the Km came out at 8.4 ± 0.8 µM in series [13]; 16 ± 2 µM in [14]; 9.3 ± 1 µM in series [15]; 6.2 ± 1 µM in series [16]; 7.4 ± 0.9 µM in [17]; 24 ± 0.5 µM in [18]. For the same molecule, the Km amounted to 16 ± 1 µM in series [19]; 104 ± 20 µM in series [20]; 8.6 ± 0.9 µM in [21]; 22 ± 2 µM in series [22]; 13 ± 1 µM in [23]. Moreover, the kcat (commonly the number of substrate molecules converted per active site and unit of time at saturation) was determined as 0.68 ± 0.06 s⁻¹ in series [6]; 4.5 ± 0.4 s⁻¹ in series [8]; 26 ± 4 s⁻¹ in [9]; 3.3 ± 0.3 s⁻¹ in [10]; 16 ± 1 s⁻¹ in [11]; 11 ± 0.3 s⁻¹ in series [12]. Besides, the kcat in [13] worked out at 7.1 ± 0.2 s⁻¹; in series [14], 13 ± 0.6 s⁻¹; in series [15], 17 ± 0.7 s⁻¹; in series [16], 2.8 ± 0.2 s⁻¹; in series [17], 32 ± 1 s⁻¹; in series [18] it was 8.9 ± 0.08 s⁻¹. Moreover, the kcat in series [19] stood at 18 ± 0.6 s⁻¹; in series [20] it was 0.83 ± 0.1 s⁻¹; in [21] it was 8.2 ± 0.3 s⁻¹; in series [22], 20 ± 0.8 s⁻¹; in [23], 4.8 ± 0.2 s⁻¹.

The record behind these values is PMC4121237, “Engineering Neprilysin Activity and Specificity to Create a Novel Therapeutic for Alzheimer’s Disease” (PLoS ONE, 2014).
